Test results from publication PMC12421817, “c-di-GMP regulates bacterial NAD biosynthesis via targeting the transcriptional repressor NadR” (mBio, 2025).

Key:
[1] = molecular target: T1, NadR (Salmonella enterica serovar Typhimurium) (UniProt P24518); experiment: EMSA; conditions: EMSA: 50 ng DNA, 20 mM Tris pH 7.5, 100 mM NaCl, 10% glycerol, 4 mM MgCl2, 1% NP-40, 1 mM DTT, 25 uL, 20 min room temperature; 6% native PAGE, 0.5x TBE, SYBR …
T1 sequence: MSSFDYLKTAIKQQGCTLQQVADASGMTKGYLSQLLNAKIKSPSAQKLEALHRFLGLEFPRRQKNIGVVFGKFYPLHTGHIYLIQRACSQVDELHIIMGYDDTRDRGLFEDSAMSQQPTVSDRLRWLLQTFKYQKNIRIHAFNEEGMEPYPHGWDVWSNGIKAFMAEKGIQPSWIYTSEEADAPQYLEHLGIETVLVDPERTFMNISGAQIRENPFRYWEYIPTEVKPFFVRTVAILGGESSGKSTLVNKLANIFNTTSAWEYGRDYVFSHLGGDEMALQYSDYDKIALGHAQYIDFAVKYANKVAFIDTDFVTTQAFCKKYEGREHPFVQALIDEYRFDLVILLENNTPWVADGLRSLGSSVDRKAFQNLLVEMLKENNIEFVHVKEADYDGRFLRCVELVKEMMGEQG

[2] = molecular target: T2, NadR (Salmonella enterica, UniProt P24518); experiment: ITC; also UV-crosslinking with unlabeled competitor, EMSA, enzyme activity stimulation; format: binding
T2 construct: N-terminal His6-tagged NadR
T2 sequence (P24518 1-410): T1 sequence

[3] = molecular target: T3, YcgR (Salmonella enterica, UniProt Q8ZP19); experiment: UV-crosslinking with biotinylated c-di-GMP (YcgR as positive-control protein); format: binding
T3 construct: His6-YcgR
T3 sequence (Q8ZP19 whole entry): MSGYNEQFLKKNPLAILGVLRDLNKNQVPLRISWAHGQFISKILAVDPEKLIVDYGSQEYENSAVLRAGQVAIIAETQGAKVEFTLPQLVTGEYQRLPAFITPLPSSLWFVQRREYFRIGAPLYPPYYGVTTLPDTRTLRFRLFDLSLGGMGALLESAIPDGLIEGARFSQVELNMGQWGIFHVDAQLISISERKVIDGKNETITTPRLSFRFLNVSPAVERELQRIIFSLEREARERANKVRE

Compound | binding [1] | Kd [2] [nM] | UV-crosslinking with biotinylated c-di-GMP (YcgR as positive-control protein) [3]
GGTTCTTGTTTAATTTACTAAACATGGTTGCGGCAGATTAGCACTATATGGCGCTAAAAAGCACGTTATGATTTCGCTGGTGTTGTGCTTATTAAACATAAAATAAAAATACGGCGAGAGATAAACGGCAAAAAATATTTTATAGGGCAGGGTGTTAGCGTCGGATTTTGTAGTGAAATAAAGATGCTGTTAGGTTACTC (double strand) [nadB promoter] | binds | – | –
Nc1nc2c(ncn2[C@@H]2O[C@@H]3COP(=O)(O)O[C@H]4[C@@H](O)[C@H](n5cnc6c(=O)[nH]c(N)nc65)O[C@@H]4COP(=O)(O)O[C@H]3[C@H]2O)c(=O)[nH]1 [c-di-GMP] | – | 160 ± 20 | YcgR could obviously bind biotinylated c-di-GMP, while InvF, which was used as a negative control, showed no biotin-binding signal
GCTCATCGTGGCTTCTCGTTTTACTGACTTAACGAAACAACCGAATGAAAGCGTAATAAACGCCACAATCGGTTAATTTGTTTTATATGCTAAACAAGATAGCTGATTCAATAAGGAAAGTCACAATAATTACGTAGCCCCGTATCTGATGGCGGCGTAACGTCTTATCTGGCCTACGTGAGCGGTGCCGTCTGTAGGCCTGAT (double strand) [nadA-pnuC promoter] | binds | – | –
